# Test results reported in US20100196347A1, “BONE GRAFTS WITH REDUCED PROTEASE ACTIVITY AND METHODS OF SELECTION AND USE” (priority 2008, published 2010).
# Assays:
# [1] = Binding and release of PDGF from human bone graft (salt elution; ELISA / SEC); assay type: physicochemical
# Method: FIG. 1 summarizes an exemplary protocol for studying the binding and release of PDGF from bone graft. For some experiments, the amounts were scaled down two or ten times to preserve the bone graft materials. In particular, 100 μl of human bone graft (LifeNet, Inc.) was mixed with 100 μl of PDGF at a concentration of 0.3 mg/mL in 20 mM NaOAc, pH 6.0 for ten minutes. The bone graft consisted of dry particles. The bone graft was freeze-dried before being sold (referred to as freeze-dried bone allograft, or FDBA). Then, 200 μl of NaCl (at various concentrations) in 20 mM NaOAc, pH 6.0 or phosphate buffered saline (PBS) (without NaOAc) was added. The solution was then incubated for either 1 hour or 24 hours. PDGF in solution was separated from insoluble human bone graft by centrifugation at ˜2000×g for 5 minutes at 4° C., and then the amount of rhPDGF-BB released from the matrix was determined by colorimetric ELISA Quantikine assy (R & D Systems, Minneapolis, Minn.) using plates coated with the receptor to human PDGF-BB.
# In particular, PDGF (0.5 ml of 0.3 mg/ml) was incubated with the freeze-dried bone graft (˜0.5 ml) and mixed for 10 minutes, 60 minutes, or overnight at room temperature. Then 1 mL of 1 M NaCl was added as described above for FIG. 1. […] PDGF was separated from the bone graft by centrifugation at 15,334×g for 2 minutes and the supernatant containing PDGF was analyzed by SEC, RPHPLC, ELISA, and non-reducing SDS-PAGE. […] Released PDGF was measured using a standard ELISA assay. […] Briefly, a receptor for human PDGF-BB was coated onto a plate, then PDGF was bound and evaluated with a secondary antibody-HRP conjugate and the chromogen tetramethylbenzidine for detection. […] Alternatively, the concentrations of the rhPDGF-BB in supernatants were determined using the size exclusion HPLC (SEC) on TOSOH Biosep TSK-Gel, 7.8 mm×3 cm HPLC column and TOSOH Biosep TSK-Gel, 6.0 mm×4.0 cm precolumn (Tosoh Bioscience, San Francisco, Calif.) by integration of the elution profile of PDGF and using calibration at 5 different concentrations of standard PDGF as shown in FIG. 4C. […]
# MG-63 cells = assay: MG-63 cell-based bioassay of rhPDGF eluted from FDBA; settings: eluted from FDBA with NaCl after ten minutes; data not shown
# [2] = Non-reducing SDS-PAGE of rhPDGF-BB eluted from human FDBA; assay type: physicochemical; settings: data not shown
# Method: In particular, PDGF (0.5 ml of 0.3 mg/ml) was incubated with the freeze-dried bone graft (˜0.5 ml) and mixed for 10 minutes, 60 minutes, or overnight at room temperature. Then 1 mL of 1 M NaCl was added as described above for FIG. 1. The final NaCl concentration was 667 mM. PDGF was separated from the bone graft by centrifugation at 15,334×g for 2 minutes and the supernatant containing PDGF was analyzed by SEC, RPHPLC, ELISA, and non-reducing SDS-PAGE. […] Released PDGF was measured using a standard ELISA assay. The ELISA assay was performed using Quantikine® Human PDGF-BB Immunoassay from R&D Systems, Inc. according to the manufacturer's protocol (see, for example, world wide web at rndsystems.com/pdf/dbb00.pdf). Briefly, a receptor for human PDGF-BB was coated onto a plate, then PDGF was bound and evaluated with a secondary antibody-HRP conjugate and the chromogen tetramethylbenzidine for detection. […] Alternatively, the concentrations of the rhPDGF-BB in supernatants were determined using the size exclusion HPLC (SEC) on TOSOH Biosep TSK-Gel, 7.8 mm×3 cm HPLC column and TOSOH Biosep TSK-Gel, 6.0 mm×4.0 cm precolumn (Tosoh Bioscience, San Francisco, Calif.) by integration of the elution profile of PDGF and using calibration at 5 different concentrations of standard PDGF as shown in FIG. 4C.
# [3] = PDGF release from washed demineralized bone graft (ELISA); assay type: physicochemical
# Method: The washes were conducted as follows. The bone graft sample (−0.1 g) was placed in a small plastic tube and then either 1.0 ml of water, saline solution, or elution buffer was added to the sample. The mixture was allowed to sit at room temperature for 5 minutes with occasional gently mixing by hand. At the end of the 5 minutes, the fluid was pulled off the bone graft material using a pipet, and the remaining fluid was removed by compressing the material with a sterile cotton Q-tip applicator. Following this, a solution of 0.3 mg/ml rhPDGF-BB was added to the washed bone graft and samples were removed for quantification of PDGF by ELISA over 60 minutes.
substance,measurement,setting,value
rhPDGF-BB: recombinant human platelet-derived growth factor BB,PDGF release from freeze-dried bone graft with other compounds,[1]; MEM and acetic acid in place of NaCl,release of some PDGF
same,PDGF released from bone graft by salt incubation,"[1]; NaCl up to 1.5 M or PBS, 1 hour or 24 hours, ELISA",significant amount of PDGF was released
same,rhPDGF-BB bound to the bone graft matrix recovered from the bone graft,[1]; mixture of rhPDGF-BB and bone graft washed with a low ionic strength buffer,less than 10%
same,biopotency compared to a control sample of rhPDGF-BB,MG-63 cells,retained its biopotency
same,electrophoretic comparison with control rhPDGF-BB,[2],electrophoretically indistinguishable
same,amount of PDGF released from DM bone graft,[3]; bone graft washed 5 minutes in saline,More PDGF was released
same,amount of PDGF released from DM bone graft at the end of the 60 minute study,[3]; bone graft washed 5 minutes in sterile water,decrease
same,amount of PDGF released from DM bone graft,[3]; bone graft washed in elution buffer,somewhere in the middle between water and saline washes
